# Where a chain is given by its changes, count along the chain named. Where two headings read alike, the source gives them in different places.
# T1: human GITR (full length, on cells) (human, UniProt Q9Y5U5 26-241)
# T1 construct: whole, on cells; Also used here for hGITR on the Jurkat reporter cells and on spleen cells of mice knocked-in with the human GITR gene; also called hGITR
# T1 sequence (looked up): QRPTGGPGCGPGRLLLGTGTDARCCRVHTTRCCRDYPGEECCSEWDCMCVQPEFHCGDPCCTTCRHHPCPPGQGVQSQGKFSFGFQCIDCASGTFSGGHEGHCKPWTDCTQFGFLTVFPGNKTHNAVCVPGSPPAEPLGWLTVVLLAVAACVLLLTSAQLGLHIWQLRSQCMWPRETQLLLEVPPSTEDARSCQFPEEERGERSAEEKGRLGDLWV
# T2: hGITR-ECD-hFc (human, UniProt Q9Y5U5 26-161)
# T2 construct: ECD put first; also called immunogen A; human GITR extracellular domain protein with hFc tag; not shown: human IgG Fc fragment (hFc) of the pCpC vector
# T2 chain: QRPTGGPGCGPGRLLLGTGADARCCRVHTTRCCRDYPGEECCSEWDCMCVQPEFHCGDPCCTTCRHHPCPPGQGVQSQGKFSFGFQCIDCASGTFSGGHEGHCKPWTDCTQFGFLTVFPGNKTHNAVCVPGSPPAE
# B1: 3503-mAb019 (antibody, V domains shown)
# VH: QVQLVESGGGVVQPGRSLRLSCAASGFTFSSYGMHWVRQAPGKGLEWVAVIWYAGSRKFYADSVEGRFTISRDNSKNTLYLQMSSVRPEDTAVYYCARGGSLDGGFFYYGMDVWGQGTTVTVSS
# VL: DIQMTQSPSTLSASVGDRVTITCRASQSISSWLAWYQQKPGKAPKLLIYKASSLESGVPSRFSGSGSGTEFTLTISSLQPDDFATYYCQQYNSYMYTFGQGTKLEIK
# notes: Chimeric antibody purified from hybridoma supernatant of Harbour H2L2 mice: human variable regions with rat constant regions; also called 96A10H9; chimeric anti-GITR antibody
# B2: 3503-hab019 (antibody, V domains shown)
# VH: B1 VH
# VL: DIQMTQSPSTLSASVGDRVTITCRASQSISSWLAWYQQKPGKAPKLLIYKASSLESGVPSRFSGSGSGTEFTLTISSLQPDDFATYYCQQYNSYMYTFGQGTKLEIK
# notes: also called 96A10H9; fully human anti-GITR antibody
# B3: 3503-hab019e2 (antibody, V domains shown)
# VH: B1 VH with S84N, V86L, P88A, D103E
# VL: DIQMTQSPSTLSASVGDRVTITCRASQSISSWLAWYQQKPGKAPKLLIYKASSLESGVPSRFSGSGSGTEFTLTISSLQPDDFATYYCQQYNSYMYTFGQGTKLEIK
# notes: also called 96A10H9; engineered fully human anti-GITR antibody
# B4: 3503-hab070 (antibody, V domains shown)
# VH: QVQLVESGGGVVQPGRSLRLSCAASGFTFSSYGMHWVRQAPGKGLEWVAVIWYETSNKFYVDSVKGRFTISRDNSKNTLYLQMNSLRAEDTAVYYCARYGASSGWYWYFDLWGRGTLVTVSS
# VL: DIQLTQSPSFLSASVGDRVTITCRASQGISSFLAWYQQKPGKAPKLLIYAASTLQSGVPSRFSGSGSGTEFTLTISSLQPEDFATYCCQQLNSYPFTFGQGTKLEIK
# notes: also called 272G5E1; fully human anti-GITR antibody
# B5: 3503-mAb070 (antibody, V domains shown)
# VH: B4 VH
# VL: B4 VL
# notes: Chimeric antibody purified from hybridoma supernatant of Harbour H2L2 mice: human variable regions with rat constant regions; also called 272G5E1; chimeric anti-GITR antibody
# B6: 3503-hab070e1 (antibody, V domains shown)
# VH: B4 VH
# VL: B4 VL with C87Y
# notes: also called 272G5E1; engineered fully human anti-GITR antibody
# B7: 3503-mAb064 (antibody, V domains shown)
# VH: B4 VH with F59Y, V61A, S85N, A101G, S102N
# VL: B4 VL with K42T
# notes: Chimeric antibody purified from hybridoma supernatant of Harbour H2L2 mice: human variable regions with rat constant regions; also called 265G9A11; chimeric anti-GITR antibody
# B8: 3503-mAb076 (antibody, V domains shown)
# VH: B4 VH with F59Y, V61A
# VL: B4 VL with F32Y
# notes: Chimeric antibody purified from hybridoma supernatant of Harbour H2L2 mice: human variable regions with rat constant regions; also called 277C12G4; chimeric anti-GITR antibody
# B9: 3503-hab064 (antibody, V domains shown)
# VH: B4 VH with F59Y, V61A, S85N, A101G, S102N
# VL: B4 VL with K42T
# notes: also called 265G9A11; fully human anti-GITR antibody
# B10: 3503-hab076 (antibody, V domains shown)
# VH: B4 VH with F59Y, V61A
# VL: B4 VL with F32Y
# notes: also called 277C12G4; fully human anti-GITR antibody
# Experiments:
# [1] = molecular target: T3, monkey GITR (full length, on cells) (monkey); assay: flow cytometry (FACS) on 293F-cGITR cells, MFI curve fit
# T3 construct: whole, on cells; also called cGITR
# Method: (§1) The pIRES plasmid with the monkey-derived GITR full-length gene was transfected into the HEK293 cell line to construct a HEK293 stable cell line containing monkey GITR (herein referred to as HEK293-cGITR stable cell line), wherein the database accession number of the monkey GITR nucleotide sequence is XP_005545180.1. The tool antibody Tab9H6v3 was constructed with reference to the patent (US_2015_0064204_A1). […] The medium was aspirated, and the cells were incubated with chimeric anti-GITR antibody or IgG1 isotype control antibody in PBS+2% FBS for 1 hour so that the antibody binds to the GITR protein expressed on the cell surface. Cells were collected and washed, and then incubated with anti-human antibody conjugated with fluorescent dye at 4° C. for 1 hour. Mean fluorescence intensity (MFI) of chimeric anti-GITR antibodies bound to cells expressing hGITR or cGITR was determined by flow cytometry. The EC50 of the fitting curve was calculated by GraphPad Prism software. The antibody to be tested can bind to human or monkey GITR protein on the cell surface. The data in the table is the average fluorescence intensity values of the cell populations measured by MFI.
# [2] = molecular target: T1, human GITR (full length, on cells); assay: flow cytometry (FACS) on 293F-hGITR cells, MFI curve fit
# Method: as §1
# [3] = molecular target: T1, human GITR (full length, on cells); assay: cell-based or functional assay
# [4] = molecular target: T1, human GITR (full length, on cells); assay: cell-based or functional assay; remark: listed apart in the source
# [5] = molecular target: T4, cGITR-ECD-hFc (rhesus; human, UniProt F7DDV8 14-149); assay: ELISA, cGITR-ECD-hFc coated on plate, HRP anti-human Fab detection
# T4 sequence (F7DDV8 entry or part of it): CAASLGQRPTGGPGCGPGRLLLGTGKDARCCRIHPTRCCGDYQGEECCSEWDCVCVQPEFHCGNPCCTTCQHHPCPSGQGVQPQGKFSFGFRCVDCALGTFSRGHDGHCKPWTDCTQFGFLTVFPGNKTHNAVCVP
# [6] = molecular target: T3, monkey GITR (full length, on cells); assay: flow cytometry (FACS) on 293F-cGITR cells, MFI curve fit; remark: listed apart in the source
# Method: as §1
# [7] = molecular target: T2, hGITR-ECD-hFc; assay: SPR (Biacore T200), hGITR-ECD-hFc immobilised on CM5 chip, antibody as analyte
# Method: (§2) The antigen hGITR-ECD-hFc was immobilized on the chip surface in manual mode using the running buffer HBS-EP+(10 mM HEPES, 150 mM NaCl, 3 mM EDTA, 0.05% P20, pH 7.4). First, a fresh mixture of 50 mM NHS and 200 mM EDC was used to activate the flow cell 4 of the tandem S CM5 sensor chip. The antigen was then diluted to 1 μg/ml with 10 mM NaAC (pH 5.0) and was injected into flow cell 4 for approximately 40 seconds. Finally, 1 M ethanolamine was used to block the remaining active coupling sites.
# Buffer flow was maintained for 600 seconds to determine dissociation. To remove the test antibody from the surface, 10 mM Glycine-HCl (pH 1.5) was injected into flow cells 1 and 4 at a flow rate of 10 μ L/min for 30 seconds. The above steps were repeated for each concentration of continuously diluted antibodies.
# The KD value of each antibody was evaluated using Biacore T200 evaluation software 3.0, where flow cell 1 was used as a reference flow cell.
# [8] = molecular target: T2, hGITR-ECD-hFc; assay: ELISA, hGITR-ECD-hFc coated on plate, HRP anti-human Fab detection
# Method: (§3) HGITR-ECD-hFc protein and cGITR-ECD-hFc protein were diluted to 1 μg/ml with PBS hydrochloric acid buffer (pH 7.2), and 100 μl dilution was added to 96-well ELISA microplate, and incubated at 4° C. overnight. The microplate was washed three times with 300 μl/well wash buffer PBST (PBS+0.05% Tween-20), 300 μl blocking buffer (PBST+1% BSA) was added to each well, and incubated at room temperature for 2 hours. The plate was washed three times, 100 μl, 10 μg/ml anti-GITR antibody was added to each well, and was incubated at 37° C. for 1 hour. The plate was washed three times, 100 μl horseradish peroxidase (HRP) labeled anti-human Fab secondary antibody was added to each well, and was incubated at 37° C. for half an hour. The plate was washed three times, 100 μl tetramethylbenzidine (TMB) was added to each well. After 15 minutes of color development, 50 μl 1N HCl termination solution was added to each well, and the OD450 value was read with a plate reader. The EC50 of the binding curve was calculated by GraphPad Prism software.
# The binding activity of the engineered fully human anti-GITR antibody to the hGITR-ECD-hFc protein or the cGITR-ECD-hFc protein was detected by an enzyme-linked immunosorbent assay iaccording to the step (1) of Example 5.
# [9] = molecular target: T2, hGITR-ECD-hFc; assay: as above
# Method: as §3
# [10] = molecular target: T4, cGITR-ECD-hFc; assay: ELISA, cGITR-ECD-hFc coated on plate, HRP anti-human Fab detection; remark: listed apart in the source
# [11] = molecular target: T1, human GITR (full length, on cells); assay: flow cytometry (FACS) on 293F-hGITR cells, MFI curve fit; remark: listed apart in the source
# Method: as §1
# [12] = molecular target: T1, human GITR (full length, on cells); assay: cell-based or functional assay; remark: listed apart in the source
# [13] = molecular target: T2, hGITR-ECD-hFc; assay: SPR (Biacore), hGITR-ECD-hFc immobilised on CM5 chip, antibody as analyte
# Method: as §2
# Binding kinetics and affinity of the engineered fully human anti-GITR antibody to the antigen hGITR-ECD-hFc protein were tested by Biacore according to step (5) of Example 5, and the results are shown in Table 17.
Binder,EC50 [1] [nM],EC50 [2] [nM],"Activation of NF-κB activity, EC50 (nM), Coupling (Crosslinking) [3] [nM]","Activation of NF-κB activity, EC50 (nM), Coupling [4] [nM]","Activation of NF-κB activity, EC50 (nM), Non-coupling [4] [nM]",EC50 [5] [nM],EC50 [6] [nM],Kd [7] [nM],koff [7] [s⁻¹],kon [7] [M⁻¹ s⁻¹],EC50 [8] [nM],EC50 [9] [nM],EC50 [10] [nM],EC50 [11] [nM],"Activation of NF-κB activity, EC50 (nM), Coupling [12] [nM]","Activation of NF-κB activity, EC50 (nM), Non-coupling [12] [nM]",Kd [13] [nM],koff [13] [s⁻¹],kon [13] [M⁻¹ s⁻¹],"Activation of NF-κB activity, EC50 (nM), Non-coupling (Non-Crosslinking) [3] [nM]"
B1,0.01,0.07,12.5,–,–,–,–,–,–,–,–,–,–,–,–,–,–,–,–,–
B2,0.418,0.222,–,4.42,0.281,0.0717,0.53,0.401,0.000205,512000,0.11,0.0791,0.115,0.25,10.9,0.166,–,–,–,–
B3,0.31,0.155,–,–,–,–,–,–,–,–,0.089,–,0.096,–,1.74,0.139,0.384,0.00023,600000,–
B4,0.258,0.141,–,2.55,0.276,0.0529,0.301,0.251,0.000185,737000,0.078,0.0544,0.063,0.203,5.78,0.0959,–,–,–,–
B5,0.198,0.358,> 0.09,–,–,–,–,–,–,–,–,–,–,–,–,–,–,–,–,0.062
B6,0.264,0.169,–,–,–,–,–,–,–,–,0.074,–,0.062,–,4.08,0.0957,0.537,0.000381,710000,–
B7,0.404,0.385,0.101,–,–,–,–,–,–,–,–,–,–,–,–,–,–,–,–,> 0.2
B8,0.226,0.152,> 0.27,–,–,–,–,–,–,–,–,–,–,–,–,–,–,–,–,> 0.09
B9,–,–,–,2.8,0.177,0.0369,0.254,0.592,0.000315,532000,–,0.0443,–,0.194,–,–,–,–,–,–
B10,–,–,–,1.33,0.127,0.0551,0.58,1.03,0.000684,664000,–,0.0593,–,0.173,–,–,–,–,–,–
